Data set [1] in a line: Aggregation of immunoconjugates by analytical size exclusion chromatography. The data set is classed as physicochemical. As to conditions: conjugate with trastuzumab (TBS); Superdex 200 5/150 GL run in PBS. How it is done: Aggregation was measured by analytical size exclusion chromatography (Superdex 200 5/150 GL run in PBS). It was observed that the extent of aggregation depends on the Linker-Payload and the DAR. […] Table 4 also indicates whether the linking group for each conjugate is stable or cleavable.
In general terms: SEC sorts molecules by how far they enter the pores of the column.

Data set [2] can be described thus: Average drug loading (DAR, drug to antibody ratio) from LC/MS of reduced, deglycosylated conjugates. To be noted: conjugate with trastuzumab (TBS); average number of payload molecules per antibody. An excerpt: The immunoconjugates prepared as described above were characterized by LC/MS, as illustrated in FIG. 1 for one immunoconjugate. […] The conjugates were characterized in terms of average drug loading for a sample (DAR, drug to antibody ratio) and aggregation (expressed in %).
The DAR value is extrapolated from LC-MS data for reduced and deglycosylated samples. […] HPLC separates the antibody into light and heavy chains, and separates the heavy chain (HC) and light chain (LC) according to the number of Linker-Payload groups per chain. Mass spectral data enables identification of the component species in the mixture, e.g., LC, LC+1, LC+2, HC, HC+1, HC+2, etc. From the average loading on the LC and HC chains, the average drug to antibody ratio (DAR) can be calculated for an ADC (see FIG. 1B). The DAR for a given conjugate sample represents the average number of drug (payload) molecules attached to a tetrameric antibody containing two light chains and two heavy chains.

SMILES strings stand for the structures. “And” between values parts separate entries of the source, which are not always exact repeats. Identical values can stand only once.

`C[C@H](O)C(=O)N(CC[C@@H](C)N)[C@@H](c1nc(-c2cc(F)ccc2F)cn1Cc1ccccc1)C(C)(C)C` [Compound 35]: the Aggregation % in data set [1] was determined as 44.3%. Moreover, in data set [2], the DAR was 3.

Molecule `C[C@H](O)C(=O)N(CC[C@H](N)CF)[C@@H](c1nc(-c2cc(F)cc(F)c2F)cn1Cc1ccccc1)C(C)(C)C` [Compound 62] came in with an Aggregation % in data set [1] of 48.7%. The DAR in data set [2] amounted to 2.

`CCOC(C)(C)[C@H](c1nc(-c2cc(F)ccc2F)cn1Cc1cccc(F)c1)N(C[C@@H]1CNC[C@@H]1F)C(=O)[C@H](C)O` [Compound 75] yielded an Aggregation % in data set [1] of 69.4%. In addition, the DAR in data set [2] was 2.9.

Take `O=C([C@@H]1CNCCO1)N(C[C@@H]1CNC[C@@H]1F)[C@@H](c1nc(-c2cc(F)ccc2F)cn1Cc1ccccc1)C1CCOCC1` [Compound 70]: the Aggregation % in data set [1] was 16.9%. Moreover, the DAR in data set [2] came to 6.5.

In turn, `O=C(CI)N(C[C@@H]1CNC[C@@H]1F)[C@@H](c1nc(-c2cc(F)ccc2F)cn1Cc1ccccc1)C1CCOCC1` [Compound 25] returned an Aggregation % in data set [1] of 60.8%. The DAR in data set [2] was 2.2.

For the molecule `CSCCC(=O)N(C[C@@H]1CNC[C@@H]1F)[C@@H](c1nc(-c2cc(F)ccc2F)cn1Cc1ccccc1)C1CCOCC1` [Compound 39], in data set [1], the Aggregation % came to 68.5%. Also, the DAR in data set [2] turned out to be 3.2.

In turn, `N[C@H](CF)CCN(C(=O)CO)[C@@H](c1nc(-c2cc(F)ccc2F)cn1Cc1ccccc1)C1CCOCC1` [Compound 23] came in with an Aggregation % in data set [1] of 66.8%. Besides, the DAR in data set [2] came out at 3.1.

In data set [1], `CC(C)(C)[C@H](c1nc(-c2cc(F)ccc2F)cn1Cc1cccc(F)c1)N(C[C@@H]1CNC[C@@H]1F)C(=O)COCCN` [Compound 76] had an Aggregation % of 48.5%. The DAR in data set [2] is on record as 3.1.

In turn, `CC(C)(C)[C@H](c1nc(-c2cc(F)ccc2F)cn1Cc1ccccc1)N(CC[C@H](N)CF)C(=O)CN` [Compound 1] gave an Aggregation % in data set [1] of 75.8%. Further, the DAR in data set [2] came out at 5.

`CC(C)(C)[C@H](c1nc(-c2cc(F)ccc2F)cn1Cc1ccccc1)N(CC[C@H](N)CF)C(=O)N1CCN(S(C)(=O)=O)CC1` [Compound 42] came in with an Aggregation % in data set [1] of 2.4%. Besides, the DAR in data set [2] is on record as 6.

With `O=C(N1C[C@@H](O)[C@@H](O)C1)N(C[C@@H]1CNC[C@@H]1F)[C@@H](c1nc(-c2cc(F)ccc2F)cn1Cc1ccccc1)C1CCOCC1` [Compound 56], in data set [1], the Aggregation % was determined as 45.1%. For the same molecule, in data set [2], the DAR is listed as 4.1.

The molecule `CC(C)(C)[C@H](c1nc(-c2cc(F)ccc2F)cn1Cc1ccccc1)N(CC[C@H]1COCCN1)C(=O)N1CCOCC1` [Compound 63] returned an Aggregation % in data set [1] of 53.2%. In addition, the DAR in data set [2] worked out at 4.

In data set [1], `CC(C)(C)[C@H](c1nc(-c2cc(F)ccc2F)cn1Cc1ccccc1)N(CCC1(N)CC1)C(=O)[C@@H]1CCCO1` [Compound 30] yielded an Aggregation % of 2.5%. Besides, the DAR in data set [2] is 3.9.

In data set [1], `C[C@H](O)C(=O)N(CC[C@H](N)CF)[C@@H](c1nc(-c2cc(F)ccc2F)cn1CC1CCOCC1)C(C)(C)C` [Compound 11] gave an Aggregation % of 4%. The DAR in data set [2] stood at 4.

In the case of `O=C(NC[C@H](O)CO)N(C[C@@H]1CNC[C@@H]1F)[C@@H](c1nc(-c2cc(F)ccc2F)cn1Cc1ccccc1)C1CCOCC1` [Compound 74], the Aggregation % in data set [1] was determined as 39.1%. For the same molecule, the DAR in data set [2] came to 3.

`C[C@H](O)C(=O)N(CCCN)[C@@H](c1nc(-c2cc(F)ccc2F)nn1Cc1ccccc1)C(C)(C)C` [Compound 7] yielded an Aggregation % in data set [1] of 44.4%. Further, in data set [2], the DAR was 2.7.

In data set [1], `CNC(=O)N(CC[C@H]1COCCN1)[C@@H](c1nc(-c2cc(F)ccc2F)cn1Cc1ccccc1)C(C)(C)C` [Compound 4] displayed an Aggregation % of 72.9%. Besides, in data set [2], the DAR is 4.8.

The molecule `NCCCCCCSCC(=O)N(C[C@@H]1CNC[C@@H]1F)[C@@H](c1nc(-c2cc(F)ccc2F)cn1Cc1ccccc1)C1CCOCC1` [Compound 57] displayed an Aggregation % in data set [1] of 57%. The DAR in data set [2] is reported as 5.

As for `CC(C)(C)[C@H](c1nc(-c2cc(F)ccc2F)nn1Cc1ccccc1)N(CCCN)C(=O)N1CCN(S(C)(=O)=O)CC1` [Compound 44], the Aggregation % in data set [1] is 41%. The DAR in data set [2] was 4.8.

As to `CC(C)(C)[C@H](c1nc(-c2cc(F)ccc2F)cn1Cc1ccccc1)N(CC[C@@H]1COCCN1)C(=O)CO` [Compound 6], the Aggregation % in data set [1] turned out to be 67.2%. Also, in data set [2], the DAR is on record as 3.

In turn, `CC(C)(C)[C@H](c1nc(-c2cc(F)ccc2F)cn1Cc1ccccc1)N(CC[C@H]1COCCN1)C(=O)c1cccnc1` [Compound 36] came in with an Aggregation % in data set [1] of 40%. In data set [2], the DAR was 2.6.

`C[C@@H]1CN(C(=O)N(CCCN)[C@@H](c2nc(-c3cc(F)ccc3F)nn2Cc2ccccc2)C(C)(C)C)C[C@H](C)O1` [Compound 3]: in data set [1], the Aggregation % is 52.5%. Further, the DAR in data set [2] amounted to 5.4.

In the case of `C[C@H](O)C(=O)N(C[C@@H]1CNC[C@H]1O)[C@@H](c1nc(-c2cc(F)ccc2F)cn1Cc1ccccc1)C1CCOCC1` [Compound 48], the Aggregation % in data set [1] is 63.8% and 35.3%. For the same molecule, the DAR in data set [2] was 4.4 and 5.2.

`C[C@H](O)C(=O)N(CC[C@@H](N)CF)[C@@H](c1nc(-c2cc(F)ccc2F)cn1Cc1ccccc1)C(C)(C)C` [Compound 29] yielded an Aggregation % in data set [1] of 2.9%. Also, the DAR in data set [2] is listed as 2.8.

For `COC(C)(C)[C@H](c1nc(-c2cc(Cl)ccc2F)cn1Cc1cccc(F)c1)N(C[C@@H]1CN[C@H](CF)C1)C(=O)c1cc(C)nn1C` [Compound 59], the Aggregation % in data set [1] was 71%. In addition, the DAR in data set [2] was 5.2.

For `COC[C@@H](N)CCN(C(=O)[C@H](C)O)[C@@H](c1nc(-c2cc(F)ccc2F)cn1Cc1ccccc1)C(C)(C)C` [Compound 60], the Aggregation % in data set [1] turned out to be 71.7%. Besides, the DAR in data set [2] worked out at 6.4.

As to `CC(C)(C)[C@H](c1nc(-c2cc(F)ccc2F)cn1Cc1ccccc1)N(CC[C@H]1COCCN1)C(=O)CO` [Compound 5], in data set [1], the Aggregation % was determined as 48.7%. The DAR in data set [2] is recorded as 5.4.

In the case of `CC(C)(C)[C@@H](NC[C@@H]1CNC[C@@H]1F)c1nc(-c2cc(F)ccc2F)nn1Cc1cccc(F)c1` [Compound 33], in data set [1], the Aggregation % worked out at 29.8%. Besides, the DAR in data set [2] is recorded as 6.3.

`O=C(CCS)N(C[C@@H]1CNC[C@@H]1F)[C@@H](c1nc(-c2cc(F)ccc2F)cn1Cc1ccccc1)C1CCOCC1` [Compound 15]: the Aggregation % in data set [1] stood at 3.5%. Besides, in data set [2], the DAR stood at 3.7.

As to `CC(C)(C)[C@H](c1nc(-c2cc(F)ccc2F)cn1Cc1cccc(F)c1)N(C[C@@H]1CNC[C@@H]1F)C(=O)CSCCN` [Compound 16], the Aggregation % in data set [1] was 20.4%. The DAR in data set [2] is on record as 7.4.

In data set [1], `CC(C)(C)[C@H](c1nc(-c2cc(F)ccc2F)nn1Cc1ccccc1)N(CC[C@H](N)CF)C(=O)N1CCSCC1` [Compound 10] had an Aggregation % of 47%. The DAR in data set [2] is on record as 5.

In turn, `C[C@H](O)C(=O)N(C[C@H]1CNC[C@H]1F)[C@@H](c1nc(-c2cc(F)ccc2F)cn1Cc1ccccc1)C1CCOCC1` [Compound 53] returned an Aggregation % in data set [1] of 25.7%. Moreover, the DAR in data set [2] was 2.7.

In data set [1], `CC(C)(C)[C@H](c1nc(-c2cc(F)ccc2F)cn1Cc1ccccc1)N(CC[C@@H](N)CF)C(=O)c1cccnc1` [Compound 51] yielded an Aggregation % of 56.5%. For the same molecule, the DAR in data set [2] came to 5.6.

`C[C@H](O)C(=O)N(CCCN)[C@@H](c1nc(-c2cc(F)ccc2F)cn1Cc1ccccc1)C(C)(C)C` [Compound 20] registered an Aggregation % in data set [1] of 63.5%. Further, the DAR in data set [2] is reported as 5.2.

`C[C@@H]1CN(C(=O)N(CC[C@H](N)CF)[C@@H](c2nc(-c3cc(F)cc(F)c3)nn2Cc2ccccc2)C(C)(C)C)C[C@H](C)O1` [Compound 52] had an Aggregation % in data set [1] of 47.4%. For the same molecule, the DAR in data set [2] amounted to 5.2.

On to `C[C@H](O)C(=O)N(C[C@H]1CCNC1)[C@@H](c1nc(-c2cc(F)ccc2F)cn1Cc1ccccc1)C1CCOCC1` [Compound 32], for which the Aggregation % in data set [1] was determined as 1.4%. In addition, in data set [2], the DAR is recorded as 5.2.

`CC(C)(C)[C@H](c1nc(-c2cc(F)ccc2F)cn1Cc1ccccc1)N(C[C@@H](F)CN)C(=O)N1CCN(S(C)(=O)=O)CC1` [Compound 21]: the Aggregation % in data set [1] worked out at 39.7%. For the same molecule, the DAR in data set [2] turned out to be 4.7.

For the molecule `C[C@H](O)C(=O)N(CC[C@H](N)CF)[C@@H](c1nc(-c2cc(F)ccc2F)cn1Cc1cccc(F)c1)C(C)(C)C` [Compound 73], in data set [1], the Aggregation % was found to be 60%. Besides, the DAR in data set [2] was found to be 4.5.

Take `CNC(=O)N(CC[C@@H](N)CF)[C@@H](c1nc(-c2cc(F)ccc2F)cn1Cc1ccccc1)C(C)(C)C` [Compound 27]: the Aggregation % in data set [1] worked out at 12.1%. In addition, the DAR in data set [2] is 3.4.

Consider `C[C@@H]1CN(C(=O)N(C[C@@H]2CNC[C@@H]2F)[C@@H](c2nc(-c3cc(F)ccc3F)nn2Cc2cccc(F)c2)C(C)(C)C)C[C@H](C)O1` [Compound 26], for which the Aggregation % in data set [1] stood at 33.5%. Further, in data set [2], the DAR came out at 2.6.

The molecule `C[C@H](O)C(=O)N(C[C@@H]1CNC[C@@H]1F)[C@@H](c1nc(-c2cc(F)ccc2F)cn1Cc1ccccc1)C1CCOCC1` [Compound 12] showed an Aggregation % in data set [1] of 4.7%. Also, in data set [2], the DAR is reported as 5.

These data come from patent publication US9498540B2, “Cell proliferation inhibitors and conjugates thereof” (NOVARTIS AG, priority 2013, dated 2016).
